From patent US20130023504A1, “Modulation of Prostaglandin/Cyclooxygenase Metabolic Pathways” (HUNTER-FLEMING LIMITED, priority 2006, published 2013)

Test system: rat spinal cord motor neurones
Test: Neurite growth of spinal cord motor neurones in primary culture (anti β-Tubulin, In Cell Analyzer)
Assay type: cell-based
Procedure: Rat spinal motor neurones were prepared according to the method described by Martinou et al., 1992 (Martinou J C, Martinou I, Kato AC Cholinergic differentiation factor (CDF/LIF) promotes survival of isolated rat embryonic motoneurons in vitro. Neuron. 1992 April; 8(4):737-44). Briefly, pregnant female Wistar rats of 15 days gestation, were killed by cervical dislocation and the foetuses were removed from the uterus. Their spinal cords were removed and placed in ice-cold medium of Leibovitz (L15, Invitrogen, 11415-049) containing 1% of bovine serum albuminutes (BSA fatty acid free, Eurobio, Les Ulis, France, GXXBSA01-65). Meninges were carefully removed.
The spinal motor neurones were dissociated by trypsinisation for 20 minutes at 37° C. (trypsin EDTA 10× Invitrogen 15400054) diluted in PBS without calcium and magnesium (Invitrogen 2007-03). The reaction was stopped by the addition of Dulbecco Modified Eagle's Media (DMEM, Invitrogen 21969-035) containing DNase I grade II (0.1 mg/ml Roche diagnostic 104159) and 10% foetal calf serum (FCS, Invitrogen 10270098). The suspension was then mechanically dissociated by 3 passages through a 10 ml pipette. Cells were then centrifuged at 580 g for 10 minutes at room temperature. The pellet of dissociated cells was re-suspended in L15 medium and the resulting suspension was enriched in motor neurones by centrifugation at 180×g for 10 minutes at room temperature on a layer of BSA solution (3.5%) in L15 medium. The supernatant was discarded and the pellet was re-suspended in L15 medium supplemented with DNase I (1%). Then the suspension was layered over a cushion of Optiprep (d: 1.06 g/ml; Abcys, Paris, France; 1030061) and centrifuged at 335×g for 15 minutes at room temperature. The upper phase, containing the purified motor neurones, was collected, re-suspended with L15 medium and centrifuged at 800×g for 10 minutes at room temperature. The cell pellet was finally resuspended in a defined culture medium consisting of neurobasal medium supplemented with 2% B27, 2 mM L-Glutamine and Penicillin 50 Ul/ml-Streptomycin 50 μg/ml. Viable cells were counted in a Neubauer cytometer using the trypan blue exclusion test (Sigma T8154) then plated at 30 000 cells/well in 96 well-plates (pre-coated with poly-1-lysine; Nunclon, Invitrogen P5899) and cultured at 37° C. in a humidified air (95%) CO2 (5%) atmosphere.
The culture medium was changed into a defined culture medium after a 12 hours incubation period following the conditions described below:
BDNF 50 ng/ml and 10 ng/ml (in 0.1% DMSO)
After 6 hours, 12 hours and 24 hours of incubation with, cells were fixed for 5 minutes in an ethanol/acetic acid solution (95%/5%) at −20° C. and rinsed 3 times in PBS.
Motor neurones and sensory neurones were labelled by monoclonal anti β-Tubulin antibody (Sigma T8660) diluted at 1:400 in incubation solution (PBS with 5% of FCS and 0.1% of saponin, Sigma S-7900). This antibody specifically labels neurone cell bodies and neurites.
After 2 hours of incubation, the cells were washed in PBS and incubated with Alexa Fluor 488 goat anti mouse IgG (Molecular Probes A11001) diluted at 1:300 in incubation solution to reveal the 8-Tubulin III antibodies.
Analysis of the total length of neurones labelled with anti β-Tubulin antibodies (neurones) were carried out using In Cell Analyzer 1000 3.2.Workstation software.
The results were expressed in percentage compared to the vehicle. Comparison of groups was carried out using the unpaired T test.

B1: BDNF: Brain derived nerve growth factor, a specific growth factor for motor neurones; reference compound (protein, UniProt P23560 19-247, looked up)
Neurotrophic factor BDNF …: APMKEANIRGQGGLAYPGVRTHGTLESVNGPKAGSRGLTSLADTFEHVIEELLDEDQKVRPNEENNKDADLYTSRVMLSSQVPLEPPLLFLLEEYKNYLDAANMSMRVRRHSDPARRGELSVCDSISEWVTAADKKTAVDMSGGTVTVLEKVPVSKGQLKQYFYETKCNPMGYTKEGCRGIDKRHWNSQCRTTQSYVRALTMDSKKRIGWRFIRIDTSCVCTLTIKRGR
10 ng/ml, 6 hours
  Neurites length per field, % Vehicle: 193%
  Neurites length per field, Mean: 489.5 μm
10 ng/ml, 12 hours
  Neurites length per field, % Vehicle: 173%
  Neurites length per field, Mean: 731.3 μm
10 ng/ml, 24 hours
  Neurites length per field, % Vehicle: 170%
  Neurites length per field, Mean: 366.1 μm
50 ng/ml, 6 hours
  Neurites length per field, % Vehicle: 180%
  Neurites length per field, Mean: 457.2 μm
50 ng/ml, 12 hours
  Neurites length per field, % Vehicle: 152%
  Neurites length per field, Mean: 643.7 μm
50 ng/ml, 24 hours
  Neurites length per field, Mean: 293.6 μm
